Results: article PMC7959569

Biological target: Med25 AcID, Med25(394-543)-His6 (UniProt Q71SY5)
Assay: stopped-flow fluorescence transient kinetics

Chain of Med25 AcID, Med25(394-543)-His6 (Q71SY5 394-543): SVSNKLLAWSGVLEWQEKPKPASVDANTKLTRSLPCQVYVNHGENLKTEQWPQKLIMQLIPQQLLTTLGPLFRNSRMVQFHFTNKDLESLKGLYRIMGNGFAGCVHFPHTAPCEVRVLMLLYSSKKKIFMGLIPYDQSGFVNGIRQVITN

Substance | fold gain in affinity against the parent TAD [fold]
ETV4^∆Nt TAD with 4-DMN on the N terminus (from UniProt P43268 49-484) (peptide) | 1.7
ETV1^∆Nt TAD with 4-DMN on the N terminus (from UniProt P50549 42-477) (peptide) | 1.7
